Test results from the supplement of paper PMC9233669.
Fewer inactive variants are shown than the library holds.

Assays:
[1] = system: biotinyl-Leu-oxazolone; experiment: self-aminoacylation, catalytic enhancement (BLO) (fold over background); higher = more active; k-Seq, kA / k0A0; sequences stand for … in GGGAAUGGAUCCACAUCUACGAAUUC…UUCACUGCAGACUUGACGAAGCUG
In short: (§1)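 Mutagenized RNA pools (0.43 μM; 21-nt variable region) were treated with 2–1250 μM of each biotinyl-aminoacyl-oxazolone. Conditions were 50 μL HEPES/NaCl/KCl/MgCl2/CaCl2 buffer, 5% acetonitrile, pH 6.9–7.0, room temperature, 90 minutes. Catalytic enhancement, the median kA relative to the uncatalyzed rate, was derived from streptavidin capture, qPCR and Illumina sequencing.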

[2] = system: biotinyl-Ile-oxazolone; experiment: self-aminoacylation, catalytic enhancement (BIO) (fold over background); higher = more active; k-Seq, kA / k0A0; sequences stand for … in GGGAAUGGAUCCACAUCUACGAAUUC…UUCACUGCAGACUUGACGAAGCUG
In short: as §1

[3] = system: biotinyl-Val-oxazolone; experiment: self-aminoacylation, catalytic enhancement (BVO) (fold over background); higher = more active; k-Seq, kA / k0A0; sequences stand for … in GGGAAUGGAUCCACAUCUACGAAUUC…UUCACUGCAGACUUGACGAAGCUG
In short: as §1

[4] = system: biotinyl-Met-oxazolone; experiment: self-aminoacylation, catalytic enhancement (BMO) (fold over background); higher = more active; k-Seq, kA / k0A0; sequences stand for … in GGGAAUGGAUCCACAUCUACGAAUUC…UUCACUGCAGACUUGACGAAGCUG
In short: as §1

[5] = system: biotinyl-Phe-oxazolone; experiment: self-aminoacylation, catalytic enhancement (BFO) (fold over background); higher = more active; k-Seq, kA / k0A0; sequences stand for … in GGGAAUGGAUCCACAUCUACGAAUUC…UUCACUGCAGACUUGACGAAGCUG
In short: as §1

[6] = system: biotinyl-Trp-oxazolone; experiment: self-aminoacylation, catalytic enhancement (BWO) (fold over background); higher = more active; k-Seq, kA / k0A0; sequences stand for … in GGGAAUGGAUCCACAUCUACGAAUUC…UUCACUGCAGACUUGACGAAGCUG
In short: as §1

Sequence	self-aminoacylation [1]	self-aminoacylation [2]	self-aminoacylation [3]	self-aminoacylation [4]	self-aminoacylation [5]	self-aminoacylation [6]
AUUACCCUGUUCGUCGAGUGA [Fam2.1 aminoacylation ribozyme variant]	0.865	1.15	1.2	0.885	0.834	1.44
CCACACUUCAAGCAAUCCUUC [Fam1B.1 aminoacylation ribozyme variant]	0.44	0.89	0.899	0.649	1.19	0.533
CCACACUCCAAGCAAUCGCUC [Fam1B.1 aminoacylation ribozyme variant]	1.38	1.92	2.56	1.29	0.753	2.47
AUUAACCUGGACAUCGAGUGA [Fam2.1 aminoacylation ribozyme variant]	6.88	2.99	2.89	6.63	32.9	8.58
AAUCACCUAGGUCUUCGGGUG [Fam2.2 aminoacylation ribozyme variant]	5.09	3.79	3.98	4.54	46.9	6.75
GUUCACCUAGGUCAUCGGAUG [Fam2.2 aminoacylation ribozyme variant]	0.728	0.815	0.979	0.701	0.879	0.5
AAGUUUUGUAAUAGUCGCAAG [Fam3.1 aminoacylation ribozyme variant]	1.5	1.64	1.55	1.53	2.1	1.84
CUACUUCAAACUAUCGGUAUG [Fam1A.1 aminoacylation ribozyme variant]	0.601	0.715	0.813	0.557	0.842	0.665
AUUAGCCUGGUAAUCGAGUGA [Fam2.1 aminoacylation ribozyme variant]	13.3	5.28	5.07	11.6	75.9	12.8
AAGUAUGCUAAUAAUCGCAAG [Fam3.1 aminoacylation ribozyme variant]	1.14	1.45	1.05	1.28	2	1.39
AUGCACCUAGGUCAUCGGGAG [Fam2.2 aminoacylation ribozyme variant]	1.54	1.56	1.51	1.39	1.08	1.94
CUACUUCAAACAAUCGGUGGG [Fam1A.1 aminoacylation ribozyme variant]	0.878	0.934	0.816	0.811	1.14	0.856
AUUACCCUGGUCACCGGGUGA [Fam2.1 aminoacylation ribozyme variant]	14.8	6.24	7.91	14.5	87.4	14.1
AUUCACCUAGGUCAUGGGGUG [Fam2.2 aminoacylation ribozyme variant]	7.33	3.7	3.56	5.76	39.9	5.27
AUUCACCAAGGUCAUCGGCUG [Fam2.2 aminoacylation ribozyme variant]	2.66	2.06	1.92	2.21	8.8	1.78
AUCACCCUGGUCAUCUAGUGA [Fam2.1 aminoacylation ribozyme variant]	11.7	5.3	5.63	12.8	85	12.9
CUACUUCAAGCCAUCGGUCUG [Fam1A.1 aminoacylation ribozyme variant]	1.15	0.89	1.04	0.729	0.772	0.696
CUUCUUCAAACAAGCGGUCUG [Fam1A.1 aminoacylation ribozyme variant]	1.04	1.09	0.958	0.925	0.813	0.713
AUUACACUGGCCAUCGAGUGA [Fam2.1 aminoacylation ribozyme variant]	6.8	3.13	3.07	6.45	15.9	5.64
AACUUUGGUAAUAGUCGCAAG [Fam3.1 aminoacylation ribozyme variant]	3.08	2.58	2.15	2.22	3.84	2.24
CCACACGUCAAGCAAUCUGUC [Fam1B.1 aminoacylation ribozyme variant]	0.422	0.54	0.543	0.472	0.326	0.24
AUUCCCCUGGUCAACGAGUGA [Fam2.1 aminoacylation ribozyme variant]	7.82	4.6	4.67	8.04	49.5	8.98
CCACACUUCUAGCAAUCGGAC [Fam1B.1 aminoacylation ribozyme variant]	0.979	0.941	0.612	0.665	0.585	0.61
CCACACUUCUAGCACUCGGUC [Fam1B.1 aminoacylation ribozyme variant]	0.702	0.819	0.783	0.748	0.649	0.913
AAGUUUGCUAACAGUCGCCAG [Fam3.1 aminoacylation ribozyme variant]	1.17	1.61	1.33	1.45	1.8	2.07
CUACUUAAAACACUCGGUCUG [Fam1A.1 aminoacylation ribozyme variant]	0.882	0.992	0.792	0.758	0.731	0.762
